The assay concerns the target HLA-A2/β2M complex on T2 cells (no pulsed peptide) (human (endogenous in T2) | human). Put plainly: flow cytometry on cells.

Molecule ILSLELMKL [… peptide] returned an MFI of surface HLA-A2 on peptide-pulsed T2 cells of 53900. In the case of RMFPNAPYL [… peptide (WT1 126–134)] it was 74200.

Values taken from PMC12376085.
